Test: H3-heparin binding assay, recombinant AAMP blotted onto Immobilon-P
Conditions: tritiated heparin 2.5 U/mL
Protocol: Heparin binding assays utilizing competition of tritiated heparin (heparin sodium salt, [^3 H(G)]-, NEN DuPont), with unlabeled heparin, were performed for recombinant AAMP, solubilized P189 (immobilized on CovaLink™ plates), and for aggregated P189 in 0.1% BSA-DMEM solutions. Recombinant AAMP in bacterial lysate and bovine serum albumin in equal amounts were electrophoresed for gel purification, and blotted onto Immobilon-P™. These blots were incubated 3 hours with tritiated heparin, 2.5 U/mL (10.7 uCi/mL) at room temperature, alone and with increasing amounts of unlabeled heparin (0.125-0.25 U/mL) for competition. Following 3 washes, the bands of AAMP recombinant protein and BSA (triplicates for each heparin concentration) were cut from the blotted Immobilon P strips, placed in scintillation vials, and counted for comparisons. Solubilized P189 (6.25 ug/mL) was immobilized on CovaLink™ plates, as described previously, and incubated one hour at room temperature with tritiated heparin, […] (0.213 uCi/mL), alone and with increasing amounts of unlabeled heparin (50-500 U/mL) for competition. Following three washes, the plate wells, in duplicates or triplicates for each heparin concentration, were placed in scintillation vials and counted. In separate assays, aggregates of P189 (200 ug/mL in 0.1% BSA-DMEM) were incubated one hour on a rocker at room temperature with tritiated heparin (0.05 U/mL) alone and with increasing amounts of unlabeled heparin (0.05-5 U/mL) for competition. Following centrifugation,the precipitate was washed with 0.1% BSA-DMEM, centrifuged again, and then transferred to scintillation vials for counting. The background cpm/umole protein levels for assays with AAMP recombinant protein competed with unlabeled heparin, were standardized to AAMP recombinant protein's average background cpm/umole protein with no labeled heparin present.

B1: Recombinant AAMP: Recombinant human cell adhesion protein AAMP, gel purified from bacterial lysate (SEQ ID NO:7) (protein)
chain: GPEKWIRRLRRMESESESGAAADTPPLETLSFHGDEEIIEVVELDPGPPDPDDLAQEMEDVDFEEEEEEEGNEEGWVLEPQEGVVGSMEGPDDSEVTFALHSASVFCVSLDPKTNTLAVTGGEDDKAFVWRLSDGELLFECAGHKDSVTCAGFSHDSTLVATGDMSGLLKVWQVDTKEEVWSFEAGDLEWMEWHPRAPVLLAGTADGNTWMWKVPNGDCKTFQGPNCPATCGRVLPDGKRAVVGYEDGTIRIWDLKQGSPIHVLKGTEGHQGPLTCVAANQDGSLILTGSVDCQAKLVSATTGKVVGVFRPETVASQPSLGEGEESESNSVESLGFCSVMPLAAVGYLDGTLAIYDLATQTLRHQCQHQSGIVQLLWEAGTAVVYTCSLDGIVRLWDARTGRLLTDYRGHTAEILDFALSKDASLVVTTSGDHKAKVFCVQRPDR
tritiated heparin binding, cpm above background per umole protein, with competition by equal amount of cold heparin (1:1 unlabeled heparin, 3 assays, S.D.): 2139 cpm/umole protein | tritiated heparin binding, cpm above background per umole protein, without competition (6 assays, S.D.): 9134+/-2699 cpm/umole protein | tritiated heparin binding, times more than background (BSA) (approx. 15 ug protein on Immobilon-P, 6 assays): 2.2+/-0.4 times
